Laboratory results from paper PMC9482650, “Quantitative fragmentomics allow affinity mapping of interactomes” (Nature Communications, 2022).

T1: MPP2, Q14168
T1 sequence (Q14168 180-250, limits assumed, looked up): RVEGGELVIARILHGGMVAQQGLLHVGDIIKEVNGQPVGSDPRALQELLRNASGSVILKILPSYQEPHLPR

T2: SIPA1L2, Q9P2F8
T2 sequence (Q9P2F8 945-1036, limits assumed, looked up): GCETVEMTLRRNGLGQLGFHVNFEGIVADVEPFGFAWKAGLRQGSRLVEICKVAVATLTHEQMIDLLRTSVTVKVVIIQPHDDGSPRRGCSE

T3: NHERF3_4, Q5T2W1
T3 sequence (Q5T2W1 373-468, limits assumed, looked up): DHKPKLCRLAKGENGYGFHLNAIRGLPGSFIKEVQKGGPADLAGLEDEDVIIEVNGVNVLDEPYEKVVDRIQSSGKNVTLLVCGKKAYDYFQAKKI

T4: APBA2_2, Q99767
T4 sequence (Q99767 654-744, limits assumed, looked up): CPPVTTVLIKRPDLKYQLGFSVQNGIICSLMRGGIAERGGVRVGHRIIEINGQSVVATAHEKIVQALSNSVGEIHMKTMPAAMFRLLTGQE

T5: TIAM2, Q8IVF5
T5 sequence (Q8IVF5 885-986, limits assumed, looked up): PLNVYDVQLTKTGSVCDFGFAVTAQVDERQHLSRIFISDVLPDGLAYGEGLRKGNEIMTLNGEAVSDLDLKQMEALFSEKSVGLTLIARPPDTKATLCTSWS

T6: RADIL, Q96JH8
T6 sequence (Q96JH8 971-1071, limits assumed, looked up): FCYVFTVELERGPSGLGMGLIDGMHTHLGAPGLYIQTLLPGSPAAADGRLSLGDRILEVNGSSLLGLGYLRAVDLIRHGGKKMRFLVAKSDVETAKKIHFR

T7: LRRC7, Q96NW7
T7 sequence (Q96NW7 1440-1537, limits assumed, looked up): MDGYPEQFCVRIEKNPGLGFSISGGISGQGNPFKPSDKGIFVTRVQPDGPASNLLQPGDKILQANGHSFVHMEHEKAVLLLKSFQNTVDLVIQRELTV

T8: FRMPD1, Q5SYB0
T8 sequence (Q5SYB0 52-145, limits assumed, looked up): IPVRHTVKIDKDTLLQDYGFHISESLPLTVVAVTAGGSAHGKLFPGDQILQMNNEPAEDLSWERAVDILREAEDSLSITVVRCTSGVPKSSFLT

T9: GRIP1_5, Q9Y3R0
T9 sequence (Q9Y3R0 568-668, limits assumed, looked up): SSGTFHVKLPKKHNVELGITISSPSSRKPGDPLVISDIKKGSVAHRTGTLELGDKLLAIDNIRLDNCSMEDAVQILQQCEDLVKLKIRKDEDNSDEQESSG

T10: DLG3_2, Q92796
T10 sequence (Q92796 221-321, limits assumed, looked up): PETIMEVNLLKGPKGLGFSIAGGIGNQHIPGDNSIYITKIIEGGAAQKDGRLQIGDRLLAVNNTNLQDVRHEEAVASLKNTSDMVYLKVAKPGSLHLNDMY

T11: APBA2_1, Q99767
T11 sequence (Q99767 563-664, limits assumed, looked up): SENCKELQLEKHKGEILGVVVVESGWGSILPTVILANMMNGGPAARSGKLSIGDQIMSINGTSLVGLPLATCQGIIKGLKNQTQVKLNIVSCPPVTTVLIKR

T12: APBA1_2, Q02410
T12 sequence (Q02410 742-832, limits assumed, looked up): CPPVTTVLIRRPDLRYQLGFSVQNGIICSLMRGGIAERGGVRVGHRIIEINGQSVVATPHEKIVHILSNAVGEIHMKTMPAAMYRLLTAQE

T13: LNX2_2, Q8N448
T13 sequence (Q8N448 334-432, limits assumed, looked up): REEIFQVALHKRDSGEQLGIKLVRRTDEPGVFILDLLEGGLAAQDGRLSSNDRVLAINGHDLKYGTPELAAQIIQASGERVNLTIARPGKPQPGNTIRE


Legend:
Experiment in all cases: holdup assay
Parameters in all cases: key: below the threshold = too weak to quantify, mostly under pKd 3.1 to 4
Settings in all cases: plain residues with an end cap or a label only (N-terminal biotin on a linker: ado-ado)
[1] = molecular target: SCRIB_3, Q14160
Chain of SCRIB_3, Q14160 (Q14160 999-1103): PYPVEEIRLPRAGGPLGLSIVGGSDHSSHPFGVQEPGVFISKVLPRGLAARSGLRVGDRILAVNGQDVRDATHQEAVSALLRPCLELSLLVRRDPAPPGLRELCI

[2] = molecular target: T1, MPP2, Q14168
[3] = molecular target: T2, SIPA1L2, Q9P2F8
[4] = molecular target: T3, NHERF3_4, Q5T2W1
[5] = molecular target: MAGI2_5, Q86UL8
Chain of MAGI2_5, Q86UL8 (Q86UL8 915-1017): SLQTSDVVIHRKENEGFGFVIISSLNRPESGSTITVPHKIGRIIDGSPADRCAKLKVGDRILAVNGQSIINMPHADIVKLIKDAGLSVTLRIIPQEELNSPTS

[6] = molecular target: MAST2, Q6P0Q8
Chain of MAST2, Q6P0Q8 (Q6P0Q8 1099-1202): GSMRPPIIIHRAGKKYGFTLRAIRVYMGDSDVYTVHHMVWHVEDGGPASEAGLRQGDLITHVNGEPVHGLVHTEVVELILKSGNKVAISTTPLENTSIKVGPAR

[7] = molecular target: TJP1_2, Q07157
Chain of TJP1_2, Q07157 (Q07157 181-274): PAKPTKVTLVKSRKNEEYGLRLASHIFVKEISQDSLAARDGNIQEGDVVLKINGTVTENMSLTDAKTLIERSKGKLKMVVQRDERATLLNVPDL

[8] = molecular target: MAGI2_4, Q86UL8
Chain of MAGI2_4, Q86UL8 (Q86UL8 772-865): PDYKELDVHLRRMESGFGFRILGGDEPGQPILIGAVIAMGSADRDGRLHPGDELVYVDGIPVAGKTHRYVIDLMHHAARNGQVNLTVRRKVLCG

[9] = molecular target: T4, APBA2_2, Q99767
[10] = molecular target: GRIP2_5, Q9C0E4
Chain of GRIP2_5, Q9C0E4 (Q9C0E4 544-642): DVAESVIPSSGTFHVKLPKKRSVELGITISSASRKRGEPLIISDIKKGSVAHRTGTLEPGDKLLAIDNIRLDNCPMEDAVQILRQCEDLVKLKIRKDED

[11] = molecular target: T5, TIAM2, Q8IVF5
[12] = molecular target: T6, RADIL, Q96JH8
[13] = molecular target: T7, LRRC7, Q96NW7
[14] = molecular target: PDLIM1, O00151
Chain of PDLIM1, O00151 (O00151 1-87): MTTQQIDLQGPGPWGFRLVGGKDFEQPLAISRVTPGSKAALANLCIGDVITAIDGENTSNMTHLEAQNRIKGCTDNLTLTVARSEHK

[15] = molecular target: FRMPD3, Q5JV73
Chain of FRMPD3, Q5JV73 (Q5JV73 12-100): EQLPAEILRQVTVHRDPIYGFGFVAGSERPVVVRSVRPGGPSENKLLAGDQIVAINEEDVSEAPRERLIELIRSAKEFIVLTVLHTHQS

[16] = molecular target: T8, FRMPD1, Q5SYB0
[17] = molecular target: DLG4_1, P78352
Chain of DLG4_1, P78352 (P78352 62-152): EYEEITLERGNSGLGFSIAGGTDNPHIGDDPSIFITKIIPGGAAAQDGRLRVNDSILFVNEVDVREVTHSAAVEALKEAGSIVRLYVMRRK

[18] = molecular target: T9, GRIP1_5, Q9Y3R0
[19] = molecular target: LNX1_2, Q8TBB1
Chain of LNX1_2, Q8TBB1 (Q8TBB1 371-470): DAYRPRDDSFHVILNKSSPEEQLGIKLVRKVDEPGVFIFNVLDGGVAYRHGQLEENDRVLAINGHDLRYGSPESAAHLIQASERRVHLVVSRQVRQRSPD

[20] = molecular target: T10, DLG3_2, Q92796
[21] = molecular target: T11, APBA2_1, Q99767
[22] = molecular target: Inadl_6, Q8NI35
Chain of Inadl_6, Q8NI35 (Q8NI35 1058-1167): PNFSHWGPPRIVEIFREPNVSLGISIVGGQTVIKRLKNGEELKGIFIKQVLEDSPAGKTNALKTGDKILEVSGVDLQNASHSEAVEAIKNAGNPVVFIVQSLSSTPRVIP

[23] = molecular target: NOS1, P29475
Chain of NOS1, P29475 (P29475 9-101): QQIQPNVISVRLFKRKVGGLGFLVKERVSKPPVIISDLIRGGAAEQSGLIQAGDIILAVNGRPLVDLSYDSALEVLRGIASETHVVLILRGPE

[24] = molecular target: T12, APBA1_2, Q02410
[25] = molecular target: T13, LNX2_2, Q8N448

Row | pKd [1] | pKd [2] | pKd [3] | pKd [4] | pKd [5] | pKd [6] | pKd [7] | pKd [8] | pKd [9] | pKd [10] | pKd [11] | pKd [12] | pKd [13] | pKd [14] | pKd [15] | pKd [16] | pKd [17] | pKd [18] | pKd [19] | pKd [20] | Binder | further results
1 | 4.05 | below the threshold | below the threshold | below the threshold | below the threshold | 4.1 | below the threshold | below the threshold | below the threshold | below the threshold | 4.11 | below the threshold | below the threshold | below the threshold | below the threshold | below the threshold | below the threshold | below the threshold | below the threshold | 4.14 | QRPYRRGSEI [KCNJ18, B7U540] | pKd [21]: below the threshold; pKd [22]: below the threshold; pKd [23]: 3.56; pKd [24]: 3.53; pKd [25]: below the threshold
2 | 4.63 | below the threshold | below the threshold | below the threshold | 3.9 | 4.89 | below the threshold | 4.09 | below the threshold | below the threshold | below the threshold | below the threshold | 4.15 | 3.71 | below the threshold | below the threshold | 4.83 | below the threshold | below the threshold | 5.19 | ARGPPRESEV [FAM110D, Q8TAY7] | pKd [21]: below the threshold; pKd [22]: below the threshold; pKd [23]: 3.77; pKd [24]: 3.69; pKd [25]: below the threshold
3 | below the threshold | below the threshold | 3.53 | below the threshold | below the threshold | below the threshold | below the threshold | 3.65 | below the threshold | below the threshold | below the threshold | 4.5 | below the threshold | below the threshold | below the threshold | below the threshold | 3.54 | below the threshold | below the threshold | below the threshold | ARSAAASNYV [CLDN4, O14493] | pKd [21]: below the threshold; pKd [22]: below the threshold; pKd [23]: 3.82; pKd [24]: 3.83; pKd [25]: 4.04
